The record followed here is patent US20130336983A1 (TRUSTEES OF DARTMOUTH COLLEGE, published 2013).

The series deals with the molecule itself. Description: NMR spectroscopy of the 20-mer.

For LHHILMHLTEKAQEVTRKYQ [20-mer representing residues 120-139 of S14 domain III], the binding result was “binds”.
